The data set concerns the molecule itself. Briefly: SEC + other: negative stain electron microscopy.

These results are taken from publication PMC4395114 (PLoS Pathogens, 2015).

B1: RNA-free recombinant WT NP (NΔ7NP, C-terminal His tag), influenza A/WSN/33 (natural protein)
chain: RSYEQMETDGERQNATEIRASVGKMIGGIGRFYIQMCTELKLSDYEGRLIQNSLTIERMVLSAFDERRNKYLEEHPSAGKDPKKTGGPIYRRVDGKWMRELILYDKEEIRRIWRQANNGDDATAGLTHMMIWHSNLNDATYQRTRALVRTGMDPRMCSLMQGSTLPRRSGAAGAAVKGVGTMVMELIRMIKRGINDRNFWRGENGRRTRIAYERMCNILKGKFQTAAQRAMVDQVRESRNPGNAEFEDLIFLARSALILRGSVAHKSCLPACVYGPAVASGYDFEREGYSLVGIDPFRLLQNSQVYSLIRPNENPAHKSQLVWMACHSAAFEDLRVSSFIRGTKVVPRGKLSTRGVQIASNENMETMESSTLELRSRYWAIRTRSGGNTNQQRASSGQISIQPTFSVQRNLPFDRPTIMAAFTGNTEGRTSDMRTEIIRLMESARPEDVSFQGRGVFELSDEKAASPIVPSFDMSNEGSYFFGDNAEEYDN
For B1, the “stoichiometry N” value was 3 to 6.
